Measurements taken from patent US9907791B2, “Ron inhibitors for use in preventing and treating bone loss” (UNIVERSITY OF UTAH RESEARCH FOUNDATION, priority 2014, dated 2018).

What was measured:
[1] = test system: MSP-overexpressing MDA-MB-231 cells; assay: Intratibial MSP-overexpressing MDA-MB-231 tumor-induced osteolysis; format: in vivo, NOD.SCID mice; details: treated 3 days post tumor cell injection, sacrificed 30 days
Source text: (§1) All procedures involving mice and experimental protocols were approved by the Institutional Animal Care and Use Committee (IACUC) of the University of Utah. The RonTK−/− mice which reside on the FVB background, were crossed with NOD.SCID mice for an immune-compromised mouse model. As a control, wild-type FVB mice were also crossed with NOD.SCID mice. The STK−/− mice, which are on a C57BL/6 background, were compared to wild-type C57BL/6 mice as controls. Mice for all experiments were 6 to 8 weeks of age. For intratibial injections, 1×10^5 (PyMTor DU4475) or 3×10^5 (MDA-MB-231) tumor cells were resuspended in 10 μL matrigel and injected into the right tibia of anesthetized female FVB (PyMT) or NOD.SCID mice carrying various alleles of RON. Osteolysis was assessed by X-ray radiography. Dissected hindlimbs from mice sacrificed at the final time point in each experiment were placed in the Kodak In-vivo Multispectral Imaging System FX and exposed to X-ray radiography at 35 kV for 100 sec. Excess tumor tissue was removed from the bones prior to X-ray. Osteolytic lesions were quantified using Image J software (NCBI). All images were compared to the contralateral leg as an internal control.
(§2) For in vivo experiments, the OSI-296 inhibitor was dissolved in 40% Trappsol with 0.01 M HCl, and mice were treated at a concentration of 200 mg/kg daily by oral gavage. […]

PyMT control tumor cells = assay: Intratibial PyMT control tumor-induced osteolysis; format: in vivo, mice
Source text: as §1, §2

bone marrow osteoclasts = assay: Osteoclast resorption assay; format: cell-based, mice; details: WT osteoclasts, inhibitors 10 μM or muRANK-Fc 10 μg/mL daily day 9 to 12
Procedure: Bone marrow osteoclasts were generated from 6 to 8 week old WT and RonTK−/− mice. Briefly, bone marrow was isolated from hindlimb bones and plated in α-MEM media containing 10% heat-inactivated fetal bovine serum (FBS, Sigma, St. Louis, Mo.), 100 units/mL penicillin-streptomycin (Hyclone), and 33 ng/mL human macrophage colony-stimulating factor (hM-CSF) (PeproTech, Rocky Hill, N.J.) for 24 hours. Non-adherent cells were collected and frozen for later use. To assess resorption activity, bone marrow precursor cells were thawed and seeded at a density of 1×10^5 cells per well in BioCoat Osteologic slides (BD Biosciences, San Jose, Calif.) in α-MEM media containing 10% FBS and antibiotics. After adhering overnight, media was removed and media containing 33 ng/mL hM-CSF and 9 ng/mL muRANKL (R & D systems, Minneapolis, Minn.) was added. The medium was changed every 3 days depending on acidification, and the assay was terminated as indicated. Recombinant human MSP was prepared and added daily as indicated. Cells were removed with 6% bleach and slides were viewed microscopically using phase-contrast with 20× magnification. Osteolytic resorption area within 5 representative fields was determined using Image J software, experiments were performed in triplicate. Recombinant MSP was prepared as follows (to be described in detail elsewhere): Concentrated, serum-free media from an MCF7 cell line engineered to overexpress MSP was cleaved with kallikrein (Invitrogen, Waltham, Mass.; 4 ng of kallikrein/1 μg of supernatant protein at 37° C. for 2.5 hours). The reaction was diluted to 20 mL with 10 mM sodium phosphate, pH 7.4 and loaded onto a 5 mL HiTrap heparin column (Millipore, Billerica, Mass.) equilibrated with 20 mL of 10 mM sodium phosphate, pH 7.4, at a rate of 1 mL/min. The column was washed with 10 mL of 10 mM sodium phosphate, pH 7.4, at a rate of 1 mL/min. […]

B1: muRANK-Fc: murine RANKL antagonist (Amgen) (protein)
chain: VTPPCTQERHYEHLGRCCSRCEPGKYLSSKCTPTSDSVCLPCGPDEYLDTWNEEDKCLLHKVCDAGKALVAVDPGNHTAPRRCACTAGYHWNSDCECCRRNTECAPGFGAQHPLQLNKDTVCTPCLLGFFSDVFSSTDKCKPWTNCTLLGKLEAHQGTTESDVVCSSSMTLRRPPKEAQAYLPS
modifications: left off: a dimerising Fc or GST
For B1, the “osteolysis from MSP-expressing MDA-MB-231 tumor cells” value [1] was “did not significantly reduce”, the “osteolysis from PyMT control tumors (no MSP)” value (PyMT control tumor cells; WT mice, treatment began 3 days post injection, sacrificed 42 days post injection) was “significantly impaired” and the “tumor growth of PyMT control bone lesions” value (PyMT control tumor cells; caliper measurements) was “no significant effect on tumor growth”. The “MSP-induced increase in osteoclast resorption (resorption area)” value (bone marrow osteoclasts) was “only slightly reduced”.
